Measurements published in PMC4559445.

Target: PbTpk2^(226-583)-His6 (P. brasiliensis)

Work on PbGpb1-GST (natural protein) yielded an in vitro kinase activity (ADP-Glo) of 3 μM PbTpk2 on 50 μM kemptide in the presence of 4 μM PbGpb1, relative to PbTpk2 with kemptide alone of 40 % reduction.
